# Test results reported in patent US20170184612A1, “USE OF LEUKOCYTES AND NOVEL BIOMARKERS IN THE DIAGNOSIS, CONFIRMATION, AND TREATMENT OF A NEUROLOGICAL DISORDER” (The Trustees of Columbia University in the City of New York, priority 2014, published 2017).
# Molecular target: SIINFEKL-MHC-I (SIINFEKL peptide bound to MHC-I H-2Kb) (chicken; mouse)
# Assay: cell-based or functional assay
sequence,measurement,value
T cell receptor of OT-1 CD8+ T cells (TCR),neuronal death (TH+ neurons killed by CTLs),55%
